A short description of series [1]: Whole-cell anaerobic biotransformation by E. coli expressing EREDs. The format is cell-based. To be noted: 20 mM 2-hexenedioic acid.
The nature of series [2]: Whole-cell biotransformation of muconic acid by E. coli expressing EREDs. The class given is cell-based. To be noted: 0.7 mM, 24-hr incubation. The protocol: After a 24-hr incubation, no muconic acid or 2-hexenedioic acid were detected in the culture, and a 99% yield of adipic acid was obtained (FIGS. 8a, 8b, and 8c). […] The 3-hexenedioic acid-like compound appears to be an inefficient substrate for these EREDS. This is similar to the mutated 2,4-dienoyl-CoA reductases from E. coli, which catalyze hydrogenation of 2,4-dienoyl CoA into 3-enoyl CoA (Tu, X., Hubbard, P. A., Kim, J. J. P. & Schulz, H. Two distinct proton donors at the active site of Escherichia coli 2,4-dienoyl-CoA reductase are responsible for the formation of different products. Biochemistry 47, 1167-1175 (2008).).

B1: EREDCL: 2-enoate reductase (ERED) from Clostridium ljungdahlii DSM 13528 (protein)
chain: MKNKSLFQPIKIGKMEVKNKISMAPMGAFGLVDNEGCYNQRAIDYYVERAKGGTGLIITSITKVENELDKVVPGIIPVISTNPGRFLMTSSEMTERVHAYGAKIFLQLTMGFGRSGAPGTLLTSQPVSASDIPNYWDPTVTCRALTTSEVEWIVSKFIEGADIAQKADFDGVEIHAVHEGYLLDQFTLSIFNRRTDKYGGDLRGRLQLPIEIVQGIKARLGDDFPVGLRYSVKSCIKDWRQGGLPDEDYLEKGRDLKEGLDAAKILEAAGYDELNTDLGTYDAWYWSHPPIYQKNGLYLPYTKELKKVVKIPVIVAGKLGIPEDAEKALDDKAADMIGLGRPLLADPYWPKKVLSDNSERIRPCIGCHTGCLGRGFEGKPLSCTVNPAVGRERYYEIKPTLTPKKVMVVGGGVAGMEAARIIKMRGHDVTIYEGTDKLGGVIIPGSVPDFKVDDRRLIDWYKSEIKELEVKVNFNTKVTEELVEEEKPDVVIIATGAKEIKINVPGIEKDKVITALELLNDNKKVGNDVLMVGGGLVGCEAALYLAKQGKNVTIVEAKDTLLNSSKPIPHMNKIMLIDLLNMYNVKAITNNSLLEVTDKGAVLINNKFKKQEVSADTVTIAVGFKSDRELYNKLNGNIADLYLIGDAYQSANIMNAIWSANEIGLNC
Regarding B1, in series [1], the “time to complete conversion of 2-hexenedioic acid to adipic acid” value amounted to 48 h. Moreover, the “yield of adipic acid from trans,trans-muconic acid” value in series [2] is 99%.

B2: EREDMT: 2-enoate reductase (ERED) from Moorella thermoacetica ATCC 39073 (protein)
chain: MVVAYTRLFEPIKIGKVEIKNKIAMAPMGVLGLATQDGCFSKRVVDYYVERAKGGTGLIITSVTKVDNEIERFKAGAVPVATANPLHFIATAGELTERVHAYGTKIFLQLGMGFGRVAAPILLESHPVAPSALPNFWDPSITCRELTTAEVETLVQRASEAAEIAVEAGFDGVEIHAMHEGYLLDQFTIALFNRRGDKYGGALEDRLTFPIEIVRAIKDRVGKDFPVVLRFSIKNYIKDWRQGGLPGENFQEKGRDVEEALAAAKILEGAGYDGFDADAGSYDAWYWAHPPVYQKHGCYLPLTQRLKEVVKVPVIVAGRLEIPELAEEALVKGQADMIAIGRGLLTDPYWVNKVMTGRSKNIRPCIGCHDGCLGRGFLGRPLSCTVNPACGREEEYAIDRAPEAKQVMVIGGGVAGMEAARVAALRGHRVSLYEKSDRLGGHVVEAAVPDFKADDGRLLEWYKTELGELQVEIHLNQEVTPEFVEEKNPDVVVVATGSTPAIPDIPGVNKDKVTTVSDLLLGKKQAGDRVVIIGGGLAGCETALWLAQQGKDVTIIEILDDLMRAGIPVPYMNRMMLLDLLKMNGVKWLTETSVLEVTDDGVTLIGKTYQRSPLPADTVILAVGFAADQRLYNALRDKIPNLYLIGDSREPRNILAAIWEGYEVGRGI
In the case of B2, in series [1], the “time to complete conversion of 2-hexenedioic acid to adipic acid” value is 6 h. Also, in series [2], the “yield of adipic acid from cis,cis-muconic acid” value was 99% and the “yield of adipic acid from trans,trans-muconic acid” value is given as 99%.

The record behind these values is patent publication US12371675B2, “Process and microorganism for synthesis of adipic acid from carboxylic acids” (THE GOVERNING COUNCIL OF THE UNIVERSITY OF TORONTO, priority 2015, dated 2025).
